# B1: (LD78β(C11S)Fv^315)2 vaccibody (protein, part only; not given: IgG3 hinge, CH3, scFv carrier, not shown: another chain or arm of the molecule; a dimerising Fc or GST; large carriers; small tags and cut ends)
# chain: APLAADTPTASCFSYTSRQIPQNFIADYFETSSQCSKPSVIFLTKRGRQVCADPSEEWVQKYVSDLELSA
# modifications: not fully specified (C-terminus); ends and bridges not checked; also: covalent homodimer via IgG3 hinge disulfides, C-terminal carrier (IgG3 hinge, CH3, scFv315) not in chain
# Molecular target: mouse chemokine receptors (mouse)
# Assay: cell-based or functional assay
binder,measurement,value
B1,ability to stimulate T cells (proliferation of Id^315-specific Th2 cells with BALB/c splenocytes as APC),100 fold

# — patent US20230065226A1
